Consider 58 sequences from the supplement of paper PMC9428881.

± gives the standard error.

This data set is described as follows: background-corrected fluorescence of 3'-dye-labeled ssDNA relative to brightest sequence (3'-GCGCG) (fraction); higher = brighter dye fluorescence (less quenching). In a few lines: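 Arrays of single-stranded DNA, with a 3' Cy3 or Cy5 dye beside each of 1024 permuted pentamers, were built on glass slides through light-directed phosphoramidite synthesis. They were washed for 2 h at r.t. in acetonitrile and scanned at 532 or 635 nm, once before and once after overnight ethylenediamine/ethanol deprotection. Fluorescence is reported after subtracting unlabeled-oligo background and normalizing to the brightest sequence. Averages cover 10 features per array and at least 3 syntheses.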

For the sequence “TTTTTTCATCAGCATCATGATTTTTTTTTTTTTTTGGTGC [CGTGG]”, the background-corrected fluorescence amounted to 0.522 ± 0.0057 (dye: Cy3 (3' terminal)) and 0.419 ± 0.027 (dye: Cy5 (3' terminal)).
The corresponding values for “TTTTTTCATCAGCATCATGCTTTTTTTTTTTTTTTGGTGA [AGTGG]” are 0.627 ± 0.026 and 0.555 ± 0.04.
The matching figures for “TTTTTTCATCAGCATGAGCATTTTTTTTTTTTTTTGGTCT [TCTGG]”: 0.486 ± 0.026 and 0.391 ± 0.031.
The corresponding values for “TTTTTTCATCAGCATGATCATTTTTTTTTTTTTTTGGTCG [GCTGG]” are 0.526 ± 0.035 and 0.405 ± 0.028.
For the sequence “TTTTTTCATCAGCATGATGATTTTTTTTTTTTTTTGGTCC [CCTGG]”, the background-corrected fluorescence worked out at 0.404 ± 0.0089 (dye: Cy3 (3' terminal)) and 0.317 ± 0.03 (dye: Cy5 (3' terminal)).
In turn, “TTTTTTCATCAGCATGATGCTTTTTTTTTTTTTTTGGTCA [ACTGG]” gave a background-corrected fluorescence (dye: Cy3 (3' terminal)) of 0.506 ± 0.027 and a background-corrected fluorescence (dye: Cy5 (3' terminal)) of 0.414 ± 0.02.
The corresponding values for “TTTTTTCATCAGCATGCGCATTTTTTTTTTTTTTTGGTAT [TATGG]” are 0.525 ± 0.017 and 0.411 ± 0.025.
The matching figures for “TTTTTTCATCAGCATGCTCATTTTTTTTTTTTTTTGGTAG [GATGG]”: 0.541 ± 0.021 and 0.431 ± 0.046.
The corresponding values for “TTTTTTCATCAGCATGCTGATTTTTTTTTTTTTTTGGTAC [CATGG]” are 0.442 ± 0.016 and 0.349 ± 0.036.
For “TTTTTTCATCAGCATGCTGCTTTTTTTTTTTTTTTGGTAA [AATGG]”, the background-corrected fluorescence is 0.573 ± 0.022 (dye: Cy3 (3' terminal)) and 0.458 ± 0.031 (dye: Cy5 (3' terminal)).
The matching figures for “TTTTTTCATCATCAGCAGCATTTTTTTTTTTTTTTGGGTT”: 0.598 ± 0.011 and 0.489 ± 0.031.
In the case of “TTTTTTCATCATCAGCATCATTTTTTTTTTTTTTTGGGTG [GTGGG]”, the background-corrected fluorescence is, setting by setting: (dye: Cy3 (3' terminal)) 0.627 ± 0.025; (dye: Cy5 (3' terminal)) 0.428 ± 0.024.
“TTTTTTCATCATCAGCATGATTTTTTTTTTTTTTTGGGTC [CTGGG]”: the background-corrected fluorescence reads like this: (dye: Cy3 (3' terminal)) 0.511 ± 0.03; (dye: Cy5 (3' terminal)) 0.377 ± 0.024.
The matching figures for “TTTTTTCATCATCAGCATGCTTTTTTTTTTTTTTTGGGTA [ATGGG]”: 0.614 ± 0.0069 and 0.517 ± 0.03.
In the case of “TTTTTTCATCATCATCAGCATTTTTTTTTTTTTTTGGGGT”, the background-corrected fluorescence (dye: Cy3 (3' terminal)) was found to be 0.741 ± 0.023 and the background-corrected fluorescence (dye: Cy5 (3' terminal)) came out at 0.626 ± 0.053.
The matching figures for “TTTTTTCATCATCATCATCATTTTTTTTTTTTTTTGGGGG”: 0.709 ± 0.059 and 0.635 ± 0.03.
“TTTTTTCATCATCATCATGATTTTTTTTTTTTTTTGGGGC [CGGGG]”: the background-corrected fluorescence by setting is: (dye: Cy3 (3' terminal)) 0.631 ± 0.03; (dye: Cy5 (3' terminal)) 0.532 ± 0.033.
The corresponding values for “TTTTTTCATCATCATCATGCTTTTTTTTTTTTTTTGGGGA [AGGGG]” are 0.753 ± 0.014 and 0.757 ± 0.038.
The matching figures for “TTTTTTCATCATCATGAGCATTTTTTTTTTTTTTTGGGCT [TCGGG]”: 0.527 ± 0.017 and 0.442 ± 0.024.
Consider “TTTTTTCATCATCATGATCATTTTTTTTTTTTTTTGGGCG [GCGGG]”, for which the background-corrected fluorescence runs as follows: (dye: Cy3 (3' terminal)) 0.69 ± 0.031; (dye: Cy5 (3' terminal)) 0.521 ± 0.062.
The matching figures for “TTTTTTCATCATCATGATGATTTTTTTTTTTTTTTGGGCC [CCGGG]”: 0.517 ± 0.031 and 0.367 ± 0.032.
Regarding “TTTTTTCATCATCATGATGCTTTTTTTTTTTTTTTGGGCA [ACGGG]”, the background-corrected fluorescence by setting is: (dye: Cy3 (3' terminal)) 0.565 ± 0.022; (dye: Cy5 (3' terminal)) 0.505 ± 0.024.
The matching figures for “TTTTTTCATCATCATGCGCATTTTTTTTTTTTTTTGGGAT [TAGGG]”: 0.617 ± 0.027 and 0.506 ± 0.024.
The matching figures for “TTTTTTCATCATCATGCTCATTTTTTTTTTTTTTTGGGAG [GAGGG]”: 0.614 ± 0.037 and 0.478 ± 0.026.
The matching figures for “TTTTTTCATCATCATGCTGATTTTTTTTTTTTTTTGGGAC [CAGGG]”: 0.536 ± 0.029 and 0.401 ± 0.025.
As to “TTTTTTCATCATCATGCTGCTTTTTTTTTTTTTTTGGGAA [AAGGG]”, the background-corrected fluorescence runs as follows: (dye: Cy3 (3' terminal)) 0.649 ± 0.032; (dye: Cy5 (3' terminal)) 0.596 ± 0.068.
The matching figures for “TTTTTTCATCATGAGCAGCATTTTTTTTTTTTTTTGGCTT [TTCGG]”: 0.558 ± 0.029 and 0.405 ± 0.023.
The matching figures for “TTTTTTCATCATGAGCATCATTTTTTTTTTTTTTTGGCTG [GTCGG]”: 0.469 ± 0.016 and 0.364 ± 0.018.
The matching figures for “TTTTTTCATCATGAGCATGATTTTTTTTTTTTTTTGGCTC [CTCGG]”: 0.425 ± 0.028 and 0.337 ± 0.05.
“TTTTTTCATCATGAGCATGCTTTTTTTTTTTTTTTGGCTA [ATCGG]” gave a background-corrected fluorescence (dye: Cy3 (3' terminal)) of 0.483 ± 0.016 and a background-corrected fluorescence (dye: Cy5 (3' terminal)) of 0.42 ± 0.028.
The matching figures for “TTTTTTCATCATGATCAGCATTTTTTTTTTTTTTTGGCGT [TGCGG]”: 0.643 ± 0.035 and 0.558 ± 0.057.
The matching figures for “TTTTTTCATCATGATCATCATTTTTTTTTTTTTTTGGCGG”: 0.649 ± 0.014 and 0.604 ± 0.054.
The corresponding values for “TTTTTTCATCATGATCATGATTTTTTTTTTTTTTTGGCGC [CGCGG]” are 0.627 ± 0.028 and 0.551 ± 0.064.
For the sequence “TTTTTTCATCATGATCATGCTTTTTTTTTTTTTTTGGCGA [AGCGG]”, the background-corrected fluorescence is 0.714 ± 0.035 (dye: Cy3 (3' terminal)) and 0.618 ± 0.07 (dye: Cy5 (3' terminal)).
The corresponding values for “TTTTTTCATCATGATGAGCATTTTTTTTTTTTTTTGGCCT [TCCGG]” are 0.4958 ± 0.0048 and 0.386 ± 0.035.
The corresponding values for “TTTTTTCATCATGATGATCATTTTTTTTTTTTTTTGGCCG [GCCGG]” are 0.597 ± 0.02 and 0.449 ± 0.043.
The matching figures for “TTTTTTCATCATGATGATGATTTTTTTTTTTTTTTGGCCC [CCCGG]”: 0.387 ± 0.028 and 0.312 ± 0.028.
In the case of “TTTTTTCATCATGATGATGCTTTTTTTTTTTTTTTGGCCA [ACCGG]”, the background-corrected fluorescence came out at 0.518 ± 0.025 (dye: Cy3 (3' terminal)) and 0.425 ± 0.025 (dye: Cy5 (3' terminal)).
The corresponding values for “TTTTTTCATCATGATGCGCATTTTTTTTTTTTTTTGGCAT [TACGG]” are 0.603 ± 0.011 and 0.406 ± 0.025.
The matching figures for “TTTTTTCATCATGATGCTCATTTTTTTTTTTTTTTGGCAG [GACGG]”: 0.527 ± 0.028 and 0.426 ± 0.017.
As for “TTTTTTCATCATGATGCTGATTTTTTTTTTTTTTTGGCAC [CACGG]”, the background-corrected fluorescence runs as follows: (dye: Cy3 (3' terminal)) 0.436 ± 0.03; (dye: Cy5 (3' terminal)) 0.336 ± 0.03.
As for “TTTTTTCATCATGATGCTGCTTTTTTTTTTTTTTTGGCAA [AACGG]”, the background-corrected fluorescence is, setting by setting: (dye: Cy3 (3' terminal)) 0.5847 ± 0.005; (dye: Cy5 (3' terminal)) 0.504 ± 0.041.
The corresponding values for “TTTTTTCATCATGCGCAGCATTTTTTTTTTTTTTTGGATT [TTAGG]” are 0.584 ± 0.031 and 0.41 ± 0.061.
The matching figures for “TTTTTTCATCATGCGCATCATTTTTTTTTTTTTTTGGATG [GTAGG]”: 0.533 ± 0.031 and 0.388 ± 0.026.
As for “TTTTTTCATCATGCGCATGATTTTTTTTTTTTTTTGGATC [CTAGG]”, the background-corrected fluorescence reads like this: (dye: Cy3 (3' terminal)) 0.445 ± 0.019; (dye: Cy5 (3' terminal)) 0.35 ± 0.055.
The matching figures for “TTTTTTCATCATGCGCATGCTTTTTTTTTTTTTTTGGATA [ATAGG]”: 0.582 ± 0.026 and 0.479 ± 0.045.
The matching figures for “TTTTTTCATCATGCTCAGCATTTTTTTTTTTTTTTGGAGT [TGAGG]”: 0.653 ± 0.017 and 0.537 ± 0.048.
As to “TTTTTTCATCATGCTCATCATTTTTTTTTTTTTTTGGAGG”, the background-corrected fluorescence is, setting by setting: (dye: Cy3 (3' terminal)) 0.689 ± 0.0083; (dye: Cy5 (3' terminal)) 0.534 ± 0.029.
The corresponding values for “TTTTTTCATCATGCTCATGATTTTTTTTTTTTTTTGGAGC [CGAGG]” are 0.549 ± 0.026 and 0.439 ± 0.029.
As for “TTTTTTCATCATGCTCATGCTTTTTTTTTTTTTTTGGAGA [AGAGG]”, the background-corrected fluorescence turned out to be 0.726 ± 0.026 (dye: Cy3 (3' terminal)) and 0.594 ± 0.04 (dye: Cy5 (3' terminal)).
Turning to “TTTTTTCATCATGCTGAGCATTTTTTTTTTTTTTTGGACT [TCAGG]”, the background-corrected fluorescence reads like this: (dye: Cy3 (3' terminal)) 0.508 ± 0.033; (dye: Cy5 (3' terminal)) 0.412 ± 0.04.
The corresponding values for “TTTTTTCATCATGCTGATCATTTTTTTTTTTTTTTGGACG [GCAGG]” are 0.567 ± 0.016 and 0.455 ± 0.019.
“TTTTTTCATCATGCTGATGATTTTTTTTTTTTTTTGGACC [CCAGG]” displayed a background-corrected fluorescence (dye: Cy3 (3' terminal)) of 0.446 ± 0.022 and a background-corrected fluorescence (dye: Cy5 (3' terminal)) of 0.317 ± 0.023.
Turning to “TTTTTTCATCATGCTGATGCTTTTTTTTTTTTTTTGGACA [ACAGG]”, the background-corrected fluorescence came to 0.602 ± 0.022 (dye: Cy3 (3' terminal)) and 0.435 ± 0.053 (dye: Cy5 (3' terminal)).
The matching figures for “TTTTTTCATCATGCTGCGCATTTTTTTTTTTTTTTGGAAT [TAAGG]”: 0.594 ± 0.033 and 0.453 ± 0.043.
For “TTTTTTCATCATGCTGCTCATTTTTTTTTTTTTTTGGAAG [GAAGG]”, the background-corrected fluorescence (dye: Cy3 (3' terminal)) was found to be 0.593 ± 0.033 and the background-corrected fluorescence (dye: Cy5 (3' terminal)) was 0.445 ± 0.03.
The corresponding values for “TTTTTTCATCATGCTGCTGATTTTTTTTTTTTTTTGGAAC [CAAGG]” are 0.463 ± 0.028 and 0.352 ± 0.019.
The matching figures for “TTTTTTCATCATGCTGCTGCTTTTTTTTTTTTTTTGGAAA [AAAGG]”: 0.642 ± 0.038 and 0.534 ± 0.035.
